Laboratory results taken from patent US20200317817A1 (XOMA US, published 2020).

T1: rat PTH1R on UMR106 cells (rat, UniProt P25961 27-591)
T1 construct: whole, on cells; also called UMR106 (Endogenous Rat PTH1R); native rat PTH1R
T1 sequence (looked up): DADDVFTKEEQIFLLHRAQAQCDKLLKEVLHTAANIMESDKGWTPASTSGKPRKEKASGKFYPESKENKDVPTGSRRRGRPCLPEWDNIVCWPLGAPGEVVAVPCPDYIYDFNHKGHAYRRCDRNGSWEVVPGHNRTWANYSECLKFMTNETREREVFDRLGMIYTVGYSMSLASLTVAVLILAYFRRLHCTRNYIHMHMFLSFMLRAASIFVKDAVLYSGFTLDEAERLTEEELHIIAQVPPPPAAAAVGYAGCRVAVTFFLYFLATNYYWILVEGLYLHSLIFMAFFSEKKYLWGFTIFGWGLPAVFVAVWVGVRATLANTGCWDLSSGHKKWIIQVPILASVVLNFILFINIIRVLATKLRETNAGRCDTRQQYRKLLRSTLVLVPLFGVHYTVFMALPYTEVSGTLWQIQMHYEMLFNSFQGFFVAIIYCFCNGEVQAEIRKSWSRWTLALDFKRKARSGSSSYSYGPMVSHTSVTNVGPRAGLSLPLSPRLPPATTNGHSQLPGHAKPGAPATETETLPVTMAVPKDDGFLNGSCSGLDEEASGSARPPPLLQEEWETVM

T2: human PTH1R overexpressed on CHO cells (human, UniProt Q03431 27-593)
T2 sequence (looked up): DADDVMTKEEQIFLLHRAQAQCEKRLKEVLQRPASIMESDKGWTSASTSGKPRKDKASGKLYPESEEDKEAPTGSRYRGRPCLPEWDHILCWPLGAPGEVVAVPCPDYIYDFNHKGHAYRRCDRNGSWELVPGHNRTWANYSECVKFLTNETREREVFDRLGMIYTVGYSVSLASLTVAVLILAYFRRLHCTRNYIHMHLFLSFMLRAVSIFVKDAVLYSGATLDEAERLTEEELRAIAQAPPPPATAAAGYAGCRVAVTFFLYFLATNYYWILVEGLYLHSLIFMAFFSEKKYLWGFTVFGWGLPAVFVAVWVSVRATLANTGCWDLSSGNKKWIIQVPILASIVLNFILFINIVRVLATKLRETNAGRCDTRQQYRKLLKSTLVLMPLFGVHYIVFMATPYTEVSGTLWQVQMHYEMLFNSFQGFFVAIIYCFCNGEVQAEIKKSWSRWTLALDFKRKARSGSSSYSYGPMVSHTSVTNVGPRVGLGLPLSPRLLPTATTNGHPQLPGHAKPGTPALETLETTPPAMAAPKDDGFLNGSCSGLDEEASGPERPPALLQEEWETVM

T3: mouse PTH1R overexpressed on CHO cells (mouse, UniProt P41593 27-591)
T3 sequence (looked up): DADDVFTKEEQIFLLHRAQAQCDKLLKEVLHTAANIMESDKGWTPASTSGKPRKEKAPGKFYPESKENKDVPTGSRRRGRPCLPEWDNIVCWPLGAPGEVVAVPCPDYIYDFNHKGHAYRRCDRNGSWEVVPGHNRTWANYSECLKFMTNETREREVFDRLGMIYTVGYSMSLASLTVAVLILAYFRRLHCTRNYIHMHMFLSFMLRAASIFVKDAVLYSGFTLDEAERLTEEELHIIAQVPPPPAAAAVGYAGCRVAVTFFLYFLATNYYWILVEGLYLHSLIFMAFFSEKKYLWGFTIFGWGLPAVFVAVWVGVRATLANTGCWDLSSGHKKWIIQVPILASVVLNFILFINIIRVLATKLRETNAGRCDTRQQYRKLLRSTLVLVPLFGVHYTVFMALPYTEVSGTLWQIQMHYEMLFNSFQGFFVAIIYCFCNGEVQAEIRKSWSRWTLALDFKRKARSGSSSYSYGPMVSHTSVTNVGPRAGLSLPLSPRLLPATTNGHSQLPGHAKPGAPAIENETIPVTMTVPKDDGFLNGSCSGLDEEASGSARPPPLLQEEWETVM

T4: recombinant N-terminal extracellular domain of the human PTH1R receptor (human, UniProt Q03431 27-188, limits assumed)
T4 construct: domain: N-terminal extracellular domain; Bought reagent; also called N-ECD PTH1R; PTH1R N-terminal ECD
T4 sequence (looked up): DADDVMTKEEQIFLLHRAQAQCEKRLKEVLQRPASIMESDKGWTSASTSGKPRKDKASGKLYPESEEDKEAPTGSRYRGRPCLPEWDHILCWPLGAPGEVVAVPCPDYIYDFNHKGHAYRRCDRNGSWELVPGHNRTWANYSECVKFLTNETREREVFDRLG

T5: human PTH1R on Saos-2 cells (endogenous) (human, UniProt Q03431 27-593)
T5 sequence (looked up): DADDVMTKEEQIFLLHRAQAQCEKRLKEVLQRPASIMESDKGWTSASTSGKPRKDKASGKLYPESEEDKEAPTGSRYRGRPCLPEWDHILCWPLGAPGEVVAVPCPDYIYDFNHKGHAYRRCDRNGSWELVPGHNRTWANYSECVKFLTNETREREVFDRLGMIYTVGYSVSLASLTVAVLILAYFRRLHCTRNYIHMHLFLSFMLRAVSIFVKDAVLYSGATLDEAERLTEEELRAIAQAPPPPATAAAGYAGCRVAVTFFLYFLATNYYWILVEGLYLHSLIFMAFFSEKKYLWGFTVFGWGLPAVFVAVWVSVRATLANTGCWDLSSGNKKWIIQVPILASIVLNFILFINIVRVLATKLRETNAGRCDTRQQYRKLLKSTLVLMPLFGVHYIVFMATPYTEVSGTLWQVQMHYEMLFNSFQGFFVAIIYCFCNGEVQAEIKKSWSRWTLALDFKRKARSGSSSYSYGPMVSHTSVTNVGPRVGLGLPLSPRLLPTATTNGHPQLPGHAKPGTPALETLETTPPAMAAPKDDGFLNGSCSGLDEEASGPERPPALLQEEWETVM


Assays:
[1] = molecular target: T1, rat PTH1R on UMR106 cells; experiment: flow cytometry, 1 hr at 4 C
[2] = molecular target: T2, human PTH1R overexpressed on CHO cells; experiment: cell-based or functional assay
[3] = molecular target: T3, mouse PTH1R overexpressed on CHO cells; experiment: cell-based or functional assay
[4] = molecular target: T4, recombinant N-terminal extracellular …; experiment: SPR, IgG captured, ECD injected
Protocol: An anti-human IgG-Fc CMS sensor chip (GE Healthcare) was prepared using standard amine coupling as described by the manufacturer's protocol for the capture Ab on a BIACORE 4000 system (GE Healthcare). Briefly, the chip surface was activated with a 10 minute injection at 10 μL/minute of a freshly mixed 1:1 solution of 0.1 M N-Hydroxysuccinimide (NHS) and 0.4 M 1-Ethyl-3-(3-dimethylaminopropyl) carbodiimide hydrochloride (EDC). Following the activation injection, 15 ug/mL anti-human IgG-Fc antibody in acetate pH 4.5 was injected at 10 μL/minute for 10 minutes to achieve a high density capture surface. 7 minutes of 1M Ethanolamine hydrochloride-NaOH pH 8.5 was injected to block the surface. The NHS, EDC, and Ethanolamine used were from the BIACORE Amine Coupling Kit.
Kinetic Analysis was performed using HBS-EP+(Teknova) with 2.5 mg/mL BSA (Sigma Aldrich, St. Louis Mo.). Antibodies were diluted to 0.5 μg/mL and captured to achieve a surface density of 100 to 200 RU. […] Injections were performed at 30 μL/minute for 240 seconds with a 360 second dissociation time. Regeneration was then performed with one 60 second injection 3M MgCl.
The data were analyzed using BIACORE 4000 Evaluation Software and was double referenced by subtracting both the blank flow cell data and the averaged bracketing blank injections. The data was fit by simultaneously fitting the an off-rate (kd) and on-rate (kₐ), and calculating the KD as KD=kd/kₐ.

[5] = molecular target: T1, rat PTH1R on UMR106 cells; experiment: cell-based or functional assay
[6] = molecular target: T2, human PTH1R overexpressed on CHO cells; experiment: cell-based or functional assay; remark: listed apart in the source
[7] = molecular target: T3, mouse PTH1R overexpressed on CHO cells; experiment: cell-based or functional assay; remark: listed apart in the source
[8] = molecular target: T5, human PTH1R on Saos-2 cells (endogenous); experiment: cell-based or functional assay
[9] = molecular target: T2, human PTH1R overexpressed on CHO cells; experiment: flow cytometry on CHO cells, 24 hr at 4 C
Protocol: (§1) To characterize antibody binding to PTH1R, cells were labeled with either CellTrace™ CFSE or CellTrace™ Violet. Unlabeled CHOK1 parent, CHO human PTH1R labeled with CellTrace™CFSE, and CHO mouse PTH1R labeled with CellTrace™Violet were pooled together and stained with increasing concentrations of antibody. Antibodies were incubated for 24 hr at 4° C. followed by two washes with FACS Buffer (0.5% BSA, 0.1% NaN3 in DPBS). Cells were then incubated with Allophycocyanin (APC) AffiniPure F(ab′)₂ Fragment Goat Anti-Human IgG (H+L) (Jackson ImmunoResearch, West Grove, Pa.) for 20 minutes at 4° C. Followed by two washes, cells were resuspended in FACS Buffer. Samples were acquired using BD Cytometer (BD Biosciences, San Jose, Calif.) and data were analyzed using FlowJo (FlowJo, LLC, Ashland, Oreg.) and Prism (GraphPad Software, La Jolla, Calif.).

[10] = molecular target: T3, mouse PTH1R overexpressed on CHO cells; experiment: flow cytometry on CHO cells, 24 hr at 4 C
Protocol: as §1

binding result [1] | IC50, inhibition of PTH(1-34)-induced cAMP accumulation [2] | IC50, inhibition of PTHrP(1-34)-induced cAMP accumulation [2] | IC50, inhibition of PTHrP(1-34)-induced cAMP accumulation [3] | Kd [4] | koff [4] | kon [4] | EC50 of PTH(1-34), cAMP assay, with 267 nM IgG [5] | EC50 of PTH(1-34), cAMP assay, with 267 nM IgG [6] | EC50 of PTH(1-34), cAMP assay, with 267 nM IgG [7] | EC50 of PTH(1-34), cAMP assay, with 267 nM IgG [8] | EC50 of PTHrP(1-34), cAMP assay, with 267 nM IgG [8] | EC50 [9] | EC50 [10] | Binder
binds | 12.1 nM | 5.03 nM | 2.3 nM | 0.71 nM | 0.0017 s⁻¹ | 2.4e+06 M⁻¹ s⁻¹ |  |  |  |  |  |  |  | XPA.85.332 (antibody, V domains shown, Light-chain-shuffled variant of XPA.85.012) VH: QMQLVQSGAEVKKPGSSVKVSCKASGGTFSSYAISWVRQAPGQGLEWMGGIIPIFGTANYAQKFQGRVTITADESTSTAYMELSSLRSEDTAVYYCARGYVVARLWGQGTLVTVSS VL: ETTLTQSPAFMSASVGDRVTITCQASQDINNFLNWYQQKPGKAPKFLIYDASNLEKGVPSKFSGRGSGTEFTLTISSLQPEDIATYYCQQYRDFPLTFGQGTRLEIK
 |  |  |  | 0.75 nM | 0.0011 s⁻¹ | 1.4e+06 M⁻¹ s⁻¹ | 8.1 nM | 0.404 nM | 0.614 nM | 4.17 nM | 11.8 nM | 0.167 nM | 0.322 nM | XPA.85.340 (antibody, V domains shown, Light-chain-shuffled variant of XPA.85.017) VH: EVQLVETGGGVVRPGGSLRLSCAASGFTFSSSAMSWVRQTPGKELQWVSAITPGGEGTYYADVVKGRFTISRDNSKDTLYLQMDSLRAEDTAVYYCARDLYGSYGDAFDIWGQGTLVTVSS VL: SYVLTQPPSVSVAPGQTASITCSGDNLGEKFVSWYQQKAGQSPVLVIFEDNKRPSGIPERFAGSNSGNRATLTIRGTQAEDEADYYCQAWDSSWVFGGGTQLTVL
 |  |  |  | 0.43 nM | 0.00057 s⁻¹ | 1.3e+06 M⁻¹ s⁻¹ | 7.86 nM | 0.244 nM | 1.8 nM | 32.8 nM | 33 nM | 0.181 nM | 0.68 nM | XPA.85.338 (antibody, V domains shown, Light-chain-shuffled variant of XPA.85.017) VH: EVQLVETGGGVVRPGGSLRLSCAASGFTFSSSAMSWVRQTPGKELQWVSAITPGGEGTYYADVVKGRFTISRDNSKDTLYLQMDSLRAEDTAVYYCARDLYGSYGDAFDIWGQGTLVTVSS VL: SYELTQPPSVSVAPGQTATITCSGDKLGDKYASWYQQKPGQSPVLVMFENRDRPSGIPDRFSGSNSGNTATLTISGTQAMDEADYYCQAWDSSTAWVFGGGTQLTVL
 |  |  |  | 17 nM | 0.019 s⁻¹ | 1.1e+06 M⁻¹ s⁻¹ |  | 0.0181 nM | 0.144 nM |  | 23.6 nM | 0.342 nM | 14.7 nM | XPA.85.336 (antibody, V domains shown, Light-chain-shuffled variant of XPA.85.017) VH: EVQLVETGGGVVRPGGSLRLSCAASGFTFSSSAMSWVRQTPGKELQWVSAITPGGEGTYYADVVKGRFTISRDNSKDTLYLQMDSLRAEDTAVYYCARDLYGSYGDAFDIWGQGTLVTVSS VL: QSVLTQPPSVSAAPGQKVTISCSGTGSNIGSNYVAWYQQLPGTAPKLLIYDDNKRPSGTPDRFSGSKSGTSATLVIAGLQTGDEADYYCGTWDNTLNVGGVFGGGTQLTVL
 |  |  |  | 2.4 nM | 0.0019 s⁻¹ | 800000 M⁻¹ s⁻¹ |  | 0.0429 nM | 4.54 nM |  | 6.41 nM | 0.265 nM | 0.384 nM | XPA.85.335 (antibody, V domains shown, Light-chain-shuffled variant of XPA.85.017) VH: EVQLVETGGGVVRPGGSLRLSCAASGFTFSSSAMSWVRQTPGKELQWVSAITPGGEGTYYADVVKGRFTISRDNSKDTLYLQMDSLRAEDTAVYYCARDLYGSYGDAFDIWGQGTLVTVSS VL: QSVLTQPPSVSAAPGQRVTISCSGNTSNIGNNFVSWYQQLPGTAPKLLIYDDNKRPSGIPDRFSGSKSGTSATLGISGLQTGDEADYYCGTWDNSLNPPWVFGGGTQLTVL
 |  |  |  | 0.75 nM | 0.00046 s⁻¹ | 610000 M⁻¹ s⁻¹ | 2.88 nM | 0.107 nM | 0.219 nM |  | 27.1 nM | 1.26 nM | 3.27 nM | XPA.85.337 (antibody, V domains shown, Light-chain-shuffled variant of XPA.85.017) VH: EVQLVETGGGVVRPGGSLRLSCAASGFTFSSSAMSWVRQTPGKELQWVSAITPGGEGTYYADVVKGRFTISRDNSKDTLYLQMDSLRAEDTAVYYCARDLYGSYGDAFDIWGQGTLVTVSS VL: SYVLTQPPSVSVAPGQTATITCSGDDFGDKYVSWYQQKPGQSPLLVIFQDNERPSGIPERFSGSNSGNTATLTISGTQAMDEADYYCQAWDSNWVFGGGTKVTVL
